Consider 3 molecules from patent US20230073034A1 (APRILBIO, published 2023).

Assay [1] addresses T1, recombinant human TNF-α protein (human, UniProt P01375 77-233). Nature of the assay: cell-based or functional assay.
Assay [2] addresses T2, cell membrane CD40L expressed on D1.1 cells (UniProt P29965 1-261, limits assumed).
T2 sequence (looked up): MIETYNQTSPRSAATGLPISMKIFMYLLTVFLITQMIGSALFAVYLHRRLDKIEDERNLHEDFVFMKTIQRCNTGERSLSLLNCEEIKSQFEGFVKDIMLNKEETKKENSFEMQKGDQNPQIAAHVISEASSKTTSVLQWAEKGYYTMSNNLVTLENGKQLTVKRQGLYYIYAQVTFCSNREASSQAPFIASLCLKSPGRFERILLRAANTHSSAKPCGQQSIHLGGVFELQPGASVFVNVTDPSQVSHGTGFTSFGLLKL
Nature of the assay: cell-based or functional assay.

Assay [3] deals with T1, recombinant human TNF-α protein. Nature of the assay: ELISA, recombinant human TNF-α coated at 1 µg/ml, HRP goat anti-human Fd detection. (In general: An ELISA detects its analyte on a solid surface through an enzyme-linked reagent.)
Method: After washing in the same manner as described above, HRP-conjugated goat anti-human Fd antibodies (Southern Biotechnology, Birmingham, Ala.) were diluted with a 0.3% PBA buffer in 1:4,000, and each 100 μl of the diluted antibody samples were added to each well to then be allowed to react at room temperature for 1 hour. To assess antigen-specific binding of the antibodies reacting after the washing, a TMB substrate (BD Bioscience, Franklin Lakes, N.J.) was added and reacted, and the absorbance was measured using a microplate spectrophotometer at A450 nm.
(§1) HRP-conjugated goat anti-human Fd antibodies were used as secondary antibodies.
Assay [4] shares this target. Nature of the assay: BLI (Octet RED), antigen on AR2G biosensor.
The target in assay [5] is T3, recombinant human CD40L (rhCD40L-his) (human, UniProt P29965 113-261, limits assumed).
T3 construct: Soluble recombinant form made by the applicant; also called rhCD40L antigen
T3 sequence (looked up): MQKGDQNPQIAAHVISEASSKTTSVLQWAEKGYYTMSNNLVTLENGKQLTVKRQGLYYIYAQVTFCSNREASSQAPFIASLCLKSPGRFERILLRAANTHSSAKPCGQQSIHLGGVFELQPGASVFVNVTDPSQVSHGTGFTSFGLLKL
Nature of the assay: BLI (Octet RED), antigen on AR2G biosensor. A general note: Biolayer interferometry detects binding as a change in optical thickness at a sensor tip.

In assay [6] the target is T4, human serum albumin (HSA) (human, UniProt P02768 25-609). Description: BLI (Octet RED), antigen on AR2G biosensor.
The target in assay [7] is T3, recombinant human CD40L (rhCD40L-his). Nature of the assay: ELISA, CD40L coated at 1 µg/ml.
The target is the same in assay [8]. Description: ELISA, recombinant human CD40L coated at 1 µg/ml, HRP goat anti-human Fd detection.
The target in assay [9] is T4, human serum albumin (HSA). Description: ELISA, HSA coated at 1 µg/ml, HRP goat anti-human Fd detection.
Method: After blocking for 2 hours, washing was performed by repeatedly performing a process of completely removing the added buffer, adding each 300 μl of a buffer (PBS-T) containing 0.1% tween-20 PBS (pH 7.4), and then removing the buffer 3 times in total. After removing water remaining after the washing, the respective antibodies were serially diluted 10 folds at concentrations decreasing from 100 nM to 1.0×10⁻⁴ nM in a PBS pH 7.4 buffer (0.3% PBA) containing 0.3% bovine serum albumin and 0.1% tween-20, and each 100 μl of the diluted antibody samples were added to each well to be allowed to react at room temperature for 2 hours. After washing in the same manner as described above, HRP-conjugated goat anti-human Fd antibodies (Southern Biotechnology, Birmingham, Ala.) were diluted with a 0.3% PBA buffer in 1:4,000, and each 100 μl of the diluted antibody samples were added to each well to then be allowed to react at room temperature for 1 hour. To assess antigen-specific binding of the antibodies reacting after the washing, a TMB substrate (BD Bioscience, Franklin Lakes, N.J.) was added and reacted, and the absorbance was measured using a microplate spectrophotometer at A450 nm.
as §1

T1 sequence (P01375 77-233 limits assumed): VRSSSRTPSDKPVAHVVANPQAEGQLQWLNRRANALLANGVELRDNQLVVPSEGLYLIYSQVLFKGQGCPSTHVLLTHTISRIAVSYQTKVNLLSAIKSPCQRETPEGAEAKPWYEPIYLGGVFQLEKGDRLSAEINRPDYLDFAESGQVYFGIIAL

B1: APB-B1a, (anti-CD40L scFv)2-(anti-HSA SL335 Fab)-(anti-TNF-α Fv) (bispecific antibody)
chain 1: DIVLTQSPATLSVSPGERATISCRASQRVSSSTYSYMHWYQQKPGQPPKLLIKYASNLESGVPARFSGSGSGTDFTLTISSVEPEDFATYYCQHSWEIPPTFGGGTKLEIKRGGGGSGGGGSGGGGSQVQLVQSGAEVVKPGASVKLSCKASGYIFTSYYMYWVKQAPGQGLEWIGEINPSNGDTNFNEKFKSKATLTVDKSASTAYMELSSLRSEDTAVYYCTRSDGRNDMDSWGQGTLVTVSSGGGGSGGGGSGGGGSQVQLVQSGGGPVKPGGSLRLSCAASGFMFRAYSMNWVRQAPGKGLEWVSSISSSGRYIHYADSVKGRFTISRDNAKNSLYLQMNSLRAEDTAVYYCARETVMAGKALDYWGQGTLVTVSSASTKGPSVFPLAPSSKSTSEGTAALGCLVKDYFPEPVTVSWNSGALTSGVHTFPAVLQSSGLYSLSSVVTVPSSSLGTQTYICNVNHKPSNTKVDKKVEPKSSGGGGSGGGGSGGGGSEVQLVESGGGLVQPGGSLRLSCAASGYVFTDYGMNWVRQAPGKGLEWMGWINTYIGEPIYADSVKGRFTFSLDTSKSTAYLQMNSLRAEDTAVYYCARGYRSYAMDYWGQGTLVTVSS
chain 2: DIVLTQSPATLSVSPGERATISCRASQRVSSSTYSYMHWYQQKPGQPPKLLIKYASNLESGVPARFSGSGSGTDFTLTISSVEPEDFATYYCQHSWEIPPTFGGGTKLEIKRGGGGSGGGGSGGGGSQVQLVQSGAEVVKPGASVKLSCKASGYIFTSYYMYWVKQAPGQGLEWIGEINPSNGDTNFNEKFKSKATLTVDKSASTAYMELSSLRSEDTAVYYCTRSDGRNDMDSWGQGTLVTVSSGSTSGSGKPGSGEGSTKGDIVLTQSPGTLSLSPGETATLSCRASQSVGSNLAWYQQKPGQAPRLLIYGASTGATGVPARFSGSRSGTDFTLTITSLQPEDFATYYCQQYYSFLAKTFGQGTQLEIKRTVAAPSVFIFPPSDEQLKSGTASVVCLLNNFYPREAKVQWKVDNALQSGNSQESVTEQDSKDSTYSLSNTLTLSKADYEKHKVYACEVTHQGLSSPVTKSFNRGESGSTSGSGKPGSGEGSTKGDIQMTQSPSSLSASVGDRVTITCKASQNVGTNVAWYQQKPGKAPKALIYSASFLYSGVPYRFSGSGSGTDFTLTISSLQPEDFATYYCQQYNIYPLTFGQGTKVEIKR
Regarding B1, in [1], the “IC50, SEAP response of HEK-Blue reporter cells + soluble TNF-α 10 ng/ml (FIG. 22B)” value came to 3.05 nM. The “IC50, inhibition of TNF-α mediated cytotoxicity on L929 mouse cells, with HSA (FIG. 21)” value in assay [1] turned out to be 5.3 nM. For the same molecule, the “percent inhibition, SEAP response of HEK-Blue reporter cells + D1.1 cells + soluble TNF-α together (FIG. 22C)” value in assay [1] and in assay [2] was 100% each time. Further, the concentration for a half-maximal effect (EC50 (read off the curve)) – broadly, the concentration at which the effect is half-maximal – in assay [3] is roughly 1 nM; in assay [8], roughly 0.2 nM; in assay [9] it was roughly 0.5 nM. Besides, the values for the Kd in assay [4], in assay [5] and in [6] were 0.164 nM, 0.192 nM and 0.765 nM, respectively. In addition, the koff (as a rule, a measure of how fast the partners let go of each other) turned out to be 3.82e-05 s⁻¹ in assay [4], 0.000113 s⁻¹ in [5] and 0.00042 s⁻¹ in assay [6]. Besides, the kon (as a rule, the rate constant with which the complex forms) was determined as 230000 M⁻¹ s⁻¹ in [4], 590000 M⁻¹ s⁻¹ in assay [5] and 549000 M⁻¹ s⁻¹ in assay [6]. Besides, in [7], the “fold lower binding capacity than anti-human CD40L IgG1 (ruplizumab)” value is roughly 1.5 fold.

B2: APB-A1, (anti-CD40L hu5c8 scFv)2-anti-HSA SL335 Fab (bispecific antibody)
heavy: DIVLTQSPATLSVSPGERATISCRASQRVSSSTYSYMHWYQQKPGQPPKLLIKYASNLESGVPARFSGSGSGTDFTLTISSVEPEDFATYYCQHSWEIPPTFGGGTKLEIKRGGGGSGGGGSGGGGSQVQLVQSGAEVVKPGASVKLSCKASGYIFTSYYMYWVKQAPGQGLEWIGEINPSNGDTNFNEKFKSKATLTVDKSASTAYMELSSLRSEDTAVYYCTRSDGRNDMDSWGQGTLVTVSSGGGGSGGGGSGGGGSQVQLVQSGGGPVKPGGSLRLSCAASGFMFRAYSMNWVRQAPGKGLEWVSSISSSGRYIHYADSVKGRFTISRDNAKNSLYLQMNSLRAEDTAVYYCARETVMAGKALDYWGQGTLVTVSSASTKGPSVFPLAPSSKSTSEGTAALGCLVKDYFPEPVTVSWNSGALTSGVHTFPAVLQSSGLYSLSSVVTVPSSSLGTQTYICNVNHKPSNTKVDKKVEPKSS
light: DIVLTQSPATLSVSPGERATISCRASQRVSSSTYSYMHWYQQKPGQPPKLLIKYASNLESGVPARFSGSGSGTDFTLTISSVEPEDFATYYCQHSWEIPPTFGGGTKLEIKRGGGGSGGGGSGGGGSQVQLVQSGAEVVKPGASVKLSCKASGYIFTSYYMYWVKQAPGQGLEWIGEINPSNGDTNFNEKFKSKATLTVDKSASTAYMELSSLRSEDTAVYYCTRSDGRNDMDSWGQGTLVTVSSGSTSGSGKPGSGEGSTKGDIVLTQSPGTLSLSPGETATLSCRASQSVGSNLAWYQQKPGQAPRLLIYGASTGATGVPARFSGSRSGTDFTLTITSLQPEDFATYYCQQYYSFLAKTFGQGTQLEIKRTVAAPSVFIFPPSDEQLKSGTASVVCLLNNFYPREAKVQWKVDNALQSGNSQESVTEQDSKDSTYSLSNTLTLSKADYEKHKVYACEVTHQGLSSPVTKSFNRGES
notes: No Fc; also called (anti-hu5c8 scFv)2-SL335; (anti-CD40L scFv)2-anti-HSA Fab
As for B2, in assay [3], the binding result is “no binding (tested: 100 nM)”. Besides, the “EC50 (read off the curve)” value in assay [9] was roughly 0.5 nM.

B3: SL335 Fab (anti-human serum albumin Fab) (Fab, V domains shown)
VH: QVQLVQSGGGPVKPGGSLRLSCAASGFMFRAYSMNWVRQAPGKGLEWVSSISSSGRYIHYADSVKGRFTISRDNAKNSLYLQMNSLRAEDTAVYYCARETVMAGKALDYWGQGTLVTVSS
VL: DIVLTQSPGTLSLSPGETATLSCRASQSVGSNLAWYQQKPGQAPRLLIYGASTGATGVPARFSGSRSGTDFTLTITSLQPEDFATYYCQQYYSFLAKTFGQGTQLEIKR
notes: also called anti-HSA Fab (SL335)
In the case of B3, the binding result in assay [3] is “no binding (tested: 100 nM)”. For the same molecule, in assay [9], the “EC50 (read off the curve)” value was roughly 0.3 nM.
